Test results from paper PMC4982705 (Biochemical pharmacology, 2016).

Target: the molecule itself
Test: SEC

B1: wildtype human SULT1B1 (enzyme)
chain: not shown
- stoichiometry N: 2
